# Assay results published in a protein production outcome set (Wang et al. 2014).
# Assay: label from the status in PepcDB records
# 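Further: failed if final PepcDB status was selected cloned or expressed and not failed if soluble or beyond.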
row,Sequence,protein production
1,DIVARLQTQASATVAIPKEHHRFVIGKNGEKLQDLELKTATKIQIPRPDDPSNQIKITGTKEGIEKARHEVLLISAEQDKR,not failed
2,DKEWNEKELQKLHCAFASLPKHKPGFWSEVAAAVGSRSPEECQRKYMENPRGKGSQKHVT,not failed
3,DKIAIIGSRRMSVYTKNCVFSLASMLKNAHLCVVSGGALGVDITASMAAMPNTIGIFANGLDQIYPRTNEKIIKQIYENALALSEYEDDYLPKNYDFLLRNRLVIALSKAVVVAQADIKSGSMQSAKLALELNKPLYVLPQRLGESTATNLLLKENKAKLICDFKEFVSEFASID,failed
4,DKIGIERFLFPLGLYSYFRWMKQYERDRGLFLSLLLSLLYESTHNFLSVIFSSITGDNFVLQY,failed
5,DKIHMLKQQNIIGIGTHNGITTIHTTNHKYETTEPLNRYEKRLNPTYFIRIHRSYIINTKHIKEVQQWFNYTYMVILTNGVKMQVGRSFMKDFKASIGLL,failed
6,DKSNKLQNLVAEQLVGCGFNEILNNSLTRAAYYDGLESYPSKNLVMLLNPLSADLNCMRQTLLFGGLESIAHNANRKNADLKFFEFGNCYHFDAEKKNPEKVLAPYSEDYHLGLWVTGKMVSNSWAHADENTSVYELKAYVENIFKRLGLDLHSLVVGNLSDDIYSTALTVNTKGGKRLATFGVVTKKMLKAFDVDNEVYYADLNWKELM,not failed
7,DLSSVIKASQTLASEIKLEKLLSTLMELVIENAGAKKCVLVLLKNERLLIEAIAKINQVPISTILVSIPIAESDEIPISLINYVSHTSQTLVIDDATTEDLFISDPYIQQKEPKSLLCTPIIKQGKLMGILYLENHLTTGAFTSDRLQVINLLMAQAAISLENAQLYGQLAEYSQNLELKVEQRT,failed
8,DPQILTTPGRDIAELRRIAGRPLSVAIDFEGGRVLRHRGILGDFPSPQVMAQTMTPEQVRGMAYDMGRSLFAHGINVNFAPVVDIEAGLEVVGDRAFSPDPLIDATYATAFAQGMADAGVRPVLKHFPGHGRASGDSHTAQVHTPPLAELEKLDLIPYGRVP,failed
9,DQPVINFGIISTESSQNLKSIWEPFLKDMSQQTGYQVKAFFAPDYAGIIQGMRFDKVDIAWYGNKAAMEAVDRAHGEIFAQTVAASGAPGYWSLLIANKDSKIDSLEDMLANAKSLTFGNGDPNSTSGYLVPGYYVFAKNNVDPVKAFKRTLNSSHEVNALAVANKQVDVATFNTEGMERLELTQPEKARQLKVIWKSPLIPGDPLVWRNNLSDEQKNKLRDFFFKYGANAEQKKVLADLQWSKFQPSDDDQLLPIRQLELFKQRTDVANNANLGAEEKAAKLKALDEELAKLEKRMAEREQKTAANAG,not failed
10,DRAVKEFEANGGSSAANGGGAKKRAKPAKKVAKKSKKEESDEDDDDESE,failed
11,DRRVRRNMEIAEIVGLDAHTKMLRTSTVFQWDSVKDEHAMVGTSKALEEIRRQRGWSVRELNEELERRRRVLEFMLSNGIRMFKDVSAVIHTYQVNPERAMKRLGVEEL,failed
12,DRTEERHAKGLRRQVDHRFDKLVGTISEGVLLMDDTGVFRDGNEAAQNILGRSLDEIIGSRFDDDIWNGLREDGSPLPNVEFPFWRAYVEREPVQEEVMGVYPPDAPPRWIRVNAQPLFRSGQEAPYAVLV,not failed
13,DSALENPAQVRNYLKAQLRHEPHEVFACLFLDNKHRVMTFEILFRGTINASYVHPRQVVKRALAHNAASLILCHNHPSGITTPSRSDIDLTKRLKEALKLVDVHVLDHVIVGDGEPLSMVEKGLM,not failed
14,DSLGREAKCYNELNGCTKIYDPVCGTDGNTYPNECVLCFENRKRQTSILIQKSGPC,failed
15,DSVDKTMHIGRQLGSLVNKGDILCLTGDLGTGKTHISKGIAEGLGIDEHITSPTFNIVNEYHSGRLTLYHFDVYRVNDPDEIEAIGFDEYIFGDGVSLIEWANYIEELIPEEYIHIKIEKLPDMGENFRKITINGYGDRYNYIKEIKE,failed
16,DTVLIVNKKAEIIWINNNITNLLGYLPDELLGKSIECLVPSRTREKHVNLRNSFINKPNKRSMNQGSGLWAVHKKNHEIPVCIDLNHYEESGEKFTVCSIRL,failed
17,DVARVQRLAAALATAGTVRDVSQAVVAALRRPLRADRIALAELENDRLVVTVLDPPDPESWPELWRLEWRTEWPDAPVRAMPTLAAALREGRARIWPAGTGDLEPALADVGPGGLAVLPLPAGGRMAGACLIGWDTPHDFGPDERALLTASAGLAGQALMRAHAFDAEHELVGMLQRQL,failed
18,DVTEQKQAEAELHQRDRLLQAVAEAANWLVVEMNYDTAIEKALAVVGEAAQADRAYLFKNHPHPITGKRAVSLQFEWYGSDLQPSIQDWQNQLYQSTELSRWYSVLSSGKSINELRRKLPVAERELLERQGIQSLLLVPLGLEDQFWGYLGLADCTQERYWSRHEESTLLTMAASISGAWQRQQVEEKIRYQALHDL,not failed

row,Sequence,protein production
1,DYFTTTNSIPPVITTNHRRKHSIEKFYRDQLGSIIWNEEDVGHQQVPEINKHGYRAAVKIIVIIDNMERKAAIQSRQSYDEALRYGAVLIFLPGIYEIDT,failed
2,EAPVRVIVVHGLGTHSGALWPLVAAIEGADLAAIDLPKTPLYDDWLRLLESFISSEDDGRPLILIGAGTGGLLCAEAAHRTGLVAHVIATCLLNPSDQPTRRALFRFSPLTRLIQGRLRNREIPVTRVLNFSKISRSPALSKLCAADEFSGASKITWGFLASYVQHKAKLGAVPVTLMHPDHDLLTPVELSLRTLSRLKAPTDVVMLKDCGHFPIEEPGFTTMLETVTSVIARNS,failed
3,EDGLFSVVLPFMSSFLLDPNAADPGYLKTRDYLTYNGVTTVADMNTGGTNWELEISALKRNLDTPESPIRVRLTPDVMKLAAALKSPEAAMTLVNQMKQHNTDNLVFNGGIKLFADGAMFSQAMQINAPGYIDGHKGEWITQPSSFVEFARSYWNAGYQIHVHTNGDGGAKMVLDTLQELENDKPRADHRFTVEHYGYADDGTSRRIAKLDAQVSANPFYLFDLGDRYAENGLGFDRAARIAPLGGLASRNVPVALHSDFPMAPAEPLFLAWTAMSRETLSGKVFSPSERLTLDQAIRAITIDAAYMIGMENE,failed
4,EDKKGGTKPSNEAALTKTENLDFRLSFNKIKVTTDQNHFSGGTSIEQLKQWFGDPNKSEQRNAGNITLDSYTWVKDGAVINAQLYKNSTVARSISNFSFSREAKIGKEDYDELKIGESYKKVVEKLGEPDVLSQSMSSDKEEMQTVWSSGIKTKSSSATIELYFENGLLKNKTQKDLE,not failed
5,EDYEKVPLPNSVFVNTTESCEVERLFKATSPRGEPQDGLYCIRNSSTKSGKVLVVWDETSNKVRNYRIFEKDSKFYLEGEVLFVSVGSMVEHYHTHVLPSHQSLLLRHPYGYT,not failed
6,EEDWVLPSEVEVLESIYLDELQVIKGNGRTSPWEIYITLHPATAEDQDSQYVCFTLVLQVPAEYPHEVPQISIRNPRGLSDEQIHTILQVLGHVAKAGLGTAMLYELIEKGKEILTDNNIPHGQ,not failed
7,EEELPFKVLGDGSYLFEGKTSLSDVRHYLDLPENAFGELGDEVDTLSGLFLEIKQELPHVGDTAVYEPFRFQVTQMDKRRIIEIKIFPFE,not failed
8,EEGNSSELPLSAEDAKKLTELAENVLQGWDVQAEKIDVIQGNQMALVWKVHTDSGAVCLKRIHRPEKKALFSIFAQDYLAKKGMNVPGILPNKKGSLYSKHGSFLFVVYDWIEGRPFELTVKQDLEFIMKGLADFHTASVGYQPPNGVPIFTKLGRWPNHYTKRCKQMETWKLMAEAEKEDPFSQLYLQEIDGFIEDGLRIKDRLLQSTYVPWTEQLKKSPNLCHQDYGTGNTLLGENEQIWVIDLDTVSFDLPIRDLRKMIIPLLDTTGVWDDETFNVMLNAYESRAPLTEEQKQVMFIDMLFPYELYDVIREKYVRKSALPKEELESAFEYERIKANALRQLI,not failed
9,EEHPRAWIISVGNELLIGRTINTNAAWLGSRLTLLGFEVERVVTVPDRVEDIAEEVGRALGRARVVITTGGLGPTYDDVTLQGVAMALGRGLKLHPGALEMVRRFYSKRGLGLTEDRVKMAMLPDGAEPLENPVGAAPGAVVEARGSLVASLPGVPSEMEAMFEKALRPLLEEIAPPGAVVECGIAVVGVPESSLAPYIKEASRVSPRVYVKSHPQGSEIGKPLVR,failed
10,EEPTIGDIYNGKVTSIMQFGCFVQLEGLRKRWEGLVHISELRREGRVANVADVVSKGQRVKVKVLSFTGTKTSLSMKDVDQETGEDLNPNRRRNLV,not failed
11,EERRVAYPVLRELTERTGETSALMVWNGNESMCVEQIPSRHQVKHLAPLGARYNEALSSSVQVFLASENEDRVRQLLRSGSITLTGVDEDAVEAYLLRLKESMERGWAVNFGETSIEEVGVASPVYDHRGNMVASVLIPAPKFRVSQDTLNSLGEACAAAAAKVTTRLGGRAPH,not failed
12,EETRTEVEKKNYMNNAEEAKDVLLGVYRTNTLDAMYGYYLSILFNLGTDISQVEGSGNENFRIIPTNSFPTTQSEVQQTWAALYTGIYRANDFLERISNKIGSYTTTDKKLATLYIAEARALRGMFYFELVRRFGNVVLMTSTQMSNQNPATYVQSAPEKVYEYIEDDLLYACDILPYATDDQYRESNDYRFSKGAALGLLTKVYATWAGYPVKDESKWEAAAKTARILVESGKHGLLKDYEQLWKNTCNGTWDPTESLIEISFYSPTVSGNSDPVGRIGKWNGVKTTAIAGVRGSCAANVKVVHTFVLDWREDVSDIRRDLSIANYQYTDTKKSLWVAGASDTDESAAEKDADPTKAQKNKQNYTPAKWDIQKYVTTNSFINNDKSNVNWYFLRYADVLLLYAEALNEWKHGPDAEAYNAINAVRRRGYGNPSNTSACDLPQGLDETSFREAVRKERSYELSFEGHRRQDLIRWGIYYKTVQATAKELGYWWEGTGSPNYSVATYTEEGKHELFPIPQRDMDLCIQFNQNPKW,not failed
13,EGDPENGEKLQITIRRGKDGFGFTICCDSPVRVQAVDSGGPAERAGLQQLDTVLQLNERPVEHWKCVELAHEIRSCPSEIILLVWRV,not failed
14,EGRLVCTVRDMTDRRQKERALRHRSSAMEVASDGIAILDEAGTYQYVNQAHASIYGYDTPGALVGRSWTACYEEAEQQRLEAEAMAALEETGDWRGEARGVREDGSSFPQELTLTVLEDGSIVCVVRDITARKEDERELRSTKQYYEQILEKAVK,failed
15,EIKLEDVLIKRRSVREYCSSPLTLRELSHILFAAYGVTDERGFKTVPSAGATYPLEIYVNVRDVVGVEEGVYKYIPERHSIVRILDEEVGHELALAALKQMFIAIAPIVLIIAANYERTTRVYGDRGFRYVHMEVGHVAQNVYLMATSLGLGTVSVGAFYDNEIREILKIKEYPLLLMPVG,failed
16,EKGTTGTGNAALDNIFERKSVRTYLNKGVEKEKIDLMLRAGMSAPSGKDVRPWEFVVVSDRAKLDSMAAALPYAKMLTQARNAIIVCGDSARSFYWYLDCSAAAQNILLAAESMGLGAVWTAAYPYEDRMEVVRKYTHLPENILPLCVIPFGYPATKEQPKQKYDEKKIHYNQY,not failed
17,EKIWPRDRSASRERSLSPRSDRRSVASSQPAKPTKVTLVKSRKNEEYGLRLASHIFVKEISQDSLAARDGNIQEGDVVLKINGTVTENMSLTDAKTLIERSKGKLKMVVQRDERATLLNVPDLSDSIHSANASERDDISEIQSLASDH,failed
18,ELHPRTGRLVSLSACGRTARRQQPGQEFNHGLVLSREPLRDGRVFTVRIDRKVNSWSGSIEIGVTALDPSVLDFPSSATGLKGGSWVVSGCSVLRDGRSVLEEYGQDLDQLGEGDRVGVERTVAGELRLWVNGRDCGVAATGLPPRVWAVVDLYGKCTQITVL,not failed
